This note sets out measurements from patent US20260242735A1 (UNIVERSIT T BASEL, published 2026).

Test [1] deals with CD33 variant Y50K (recombinant, biotinylated) (human, UniProt P20138 18-259, biotinylated with EZ-Link Sulfo-NHS-LC-Biotin (sites not given)). Description: BLI (Octet R8), avidity format: biotinylated CD33 on streptavidin sensor, Refmab #4 as analyte at 500 nM. (BLI is a label-free optical method that tracks binding on a fibre tip over time.)
In test [2] the target is CD33 variant W22D (recombinant, biotinylated) (human, UniProt P20138 18-259, biotinylated with EZ-Link Sulfo-NHS-LC-Biotin (sites not given)). Described as above.
Chain of CD33 variant W22D (recombinant, biotinylated) (P20138 other isoform, or with tags, fused parts or gaps W22D W22D): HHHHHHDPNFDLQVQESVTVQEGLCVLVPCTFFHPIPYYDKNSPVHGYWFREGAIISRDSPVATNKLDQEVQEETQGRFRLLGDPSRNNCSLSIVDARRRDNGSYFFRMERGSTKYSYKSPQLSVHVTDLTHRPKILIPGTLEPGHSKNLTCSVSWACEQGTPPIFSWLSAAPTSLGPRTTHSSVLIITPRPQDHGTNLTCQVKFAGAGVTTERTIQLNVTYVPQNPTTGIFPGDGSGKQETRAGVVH
Test [3] concerns the target CD33 variant N20E (recombinant, biotinylated) (human, UniProt P20138 21-259, biotinylated with EZ-Link Sulfo-NHS-LC-Biotin (sites not given)). The description is as above.
Test [4] deals with CD33 variant F21L (recombinant, biotinylated) (human, UniProt P20138 22-259, biotinylated with EZ-Link Sulfo-NHS-LC-Biotin (sites not given)). Described as above.
Chain of CD33 variant F21L (recombinant, biotinylated) (P20138 other isoform, or with tags, fused parts or gaps F21L F21L): as the sequence (P20138 other isoform, or with tags, fused parts or gaps W22D W22D) above, with F10L, D11W counted along it
Test [5] has as its target CD33 variant W22R (recombinant, biotinylated) (human, UniProt P20138 18-259, biotinylated with EZ-Link Sulfo-NHS-LC-Biotin (sites not given)). The description is as above.
Test [6] has as its target CD33 variant N20V (recombinant, biotinylated) (human, UniProt P20138 21-259, biotinylated with EZ-Link Sulfo-NHS-LC-Biotin (sites not given)). The test is described as above.
For test [7], the target named is CD33 variant W22K (recombinant, biotinylated) (human, UniProt P20138 18-259, biotinylated with EZ-Link Sulfo-NHS-LC-Biotin (sites not given)). The description is as above.
The target of test [8] is CD33 variant F21N (recombinant, biotinylated) (human, UniProt P20138 22-259, biotinylated with EZ-Link Sulfo-NHS-LC-Biotin (sites not given)). The test is described as above.
Chain of CD33 variant F21N (recombinant, biotinylated) (P20138 other isoform, or with tags, fused parts or gaps F21N F21N): as the sequence (P20138 other isoform, or with tags, fused parts or gaps W22D W22D) above, with F10N, D11W counted along it
Test [9] concerns the target CD33 variant F44P (recombinant, biotinylated) (human, UniProt P20138 18-259, biotinylated with EZ-Link Sulfo-NHS-LC-Biotin (sites not given)). Described as above.
The target in test [10] is CD33 variant F21I (recombinant, biotinylated) (human, UniProt P20138 22-259, biotinylated with EZ-Link Sulfo-NHS-LC-Biotin (sites not given)). The description is as above.
Chain of CD33 variant F21I (recombinant, biotinylated) (P20138 other isoform, or with tags, fused parts or gaps F21I F21I): as the sequence (P20138 other isoform, or with tags, fused parts or gaps W22D W22D) above, with F10I, D11W counted along it
The target in test [11] is CD33 variant F21S (recombinant, biotinylated) (human, UniProt P20138 22-259, biotinylated with EZ-Link Sulfo-NHS-LC-Biotin (sites not given)). The test is described as above.
Chain of CD33 variant F21S (recombinant, biotinylated) (P20138 other isoform, or with tags, fused parts or gaps F21S F21S): as the sequence (P20138 other isoform, or with tags, fused parts or gaps W22D W22D) above, with F10S, D11W counted along it
The target in test [12] is CD33 variant Y50D (recombinant, biotinylated) (human, UniProt P20138 18-259, biotinylated with EZ-Link Sulfo-NHS-LC-Biotin (sites not given)). Described as above.
Chain of CD33 variant Y50D (recombinant, biotinylated) (P20138 other isoform, or with tags, fused parts or gaps Y50D Y50D): as the sequence (P20138 other isoform, or with tags, fused parts or gaps W22D W22D) above, with D11W, Y39D counted along it
The target of test [13] is CD33 variant F21H (recombinant, biotinylated) (human, UniProt P20138 22-259, biotinylated with EZ-Link Sulfo-NHS-LC-Biotin (sites not given)). The test is described as above.
Test [14] addresses CD33 variant F21M (recombinant, biotinylated) (human, UniProt P20138 22-259, biotinylated with EZ-Link Sulfo-NHS-LC-Biotin (sites not given)). The description is as above.
The target of test [15] is CD33 variant F21Q (recombinant, biotinylated) (human, UniProt P20138 22-259, biotinylated with EZ-Link Sulfo-NHS-LC-Biotin (sites not given)). The description is as above.
Chain of CD33 variant F21Q (recombinant, biotinylated) (P20138 other isoform, or with tags, fused parts or gaps F21Q F21Q): as the sequence (P20138 other isoform, or with tags, fused parts or gaps W22D W22D) above, with F10Q, D11W counted along it
The target in test [16] is CD33 double variant Y50H_H49H (recombinant, biotinylated) (human, UniProt P20138 18-259, biotinylated with EZ-Link Sulfo-NHS-LC-Biotin (sites not given)). Described as above.
The target in test [17] is CD33 variant N20G (recombinant, biotinylated) (human, UniProt P20138 21-259, biotinylated with EZ-Link Sulfo-NHS-LC-Biotin (sites not given)). Described as above.
Chain of CD33 variant N20G (recombinant, biotinylated) (P20138 other isoform, or with tags, fused parts or gaps N20G N20G): as the sequence (P20138 other isoform, or with tags, fused parts or gaps W22D W22D) above, with N9G, D11W counted along it
Test [18] deals with T1, CD33 wild type (recombinant, biotinylated) (human, UniProt P20138 18-259, biotinylated with EZ-Link Sulfo-NHS-LC-Biotin (sites not given)).
T1 construct: also called WT; CD33 wt
The test is described as above.

The target in test [19] is CD33 variant N20K (recombinant, biotinylated) (human, UniProt P20138 21-259, biotinylated with EZ-Link Sulfo-NHS-LC-Biotin (sites not given)). Described as above.
Chain of CD33 variant N20K (recombinant, biotinylated) (P20138 other isoform, or with tags, fused parts or gaps N20K N20K): as the sequence (P20138 other isoform, or with tags, fused parts or gaps W22D W22D) above, with N9K, D11W counted along it
The target in test [20] is CD33 variant W22T (recombinant, biotinylated) (human, UniProt P20138 18-259, biotinylated with EZ-Link Sulfo-NHS-LC-Biotin (sites not given)). Described as above.
Chain of CD33 variant W22T (recombinant, biotinylated) (P20138 other isoform, or with tags, fused parts or gaps W22T W22T): as the sequence (P20138 other isoform, or with tags, fused parts or gaps W22D W22D) above, with D11T counted along it
In test [21] the target is CD33 variant Y50R (recombinant, biotinylated) (human, UniProt P20138 18-259, biotinylated with EZ-Link Sulfo-NHS-LC-Biotin (sites not given)). The description is as above.
Chain of CD33 variant Y50R (recombinant, biotinylated) (P20138 other isoform, or with tags, fused parts or gaps Y50R Y50R): as the sequence (P20138 other isoform, or with tags, fused parts or gaps W22D W22D) above, with D11W, Y39R counted along it
For test [22], the target named is CD33 variant W22E (recombinant, biotinylated) (human, UniProt P20138 18-259, biotinylated with EZ-Link Sulfo-NHS-LC-Biotin (sites not given)). Described as above.
Test [23] concerns the target CD33 variant F21V (recombinant, biotinylated) (human, UniProt P20138 22-259, biotinylated with EZ-Link Sulfo-NHS-LC-Biotin (sites not given)). The description is as above.
Test [24] addresses CD33 variant N20H (recombinant, biotinylated) (human, UniProt P20138 21-259, biotinylated with EZ-Link Sulfo-NHS-LC-Biotin (sites not given)). The description is as above.
The target in test [25] is T2, human wild-type CD33 (human, UniProt P20138 18-364).
T2 construct: also called SIGLEC3; P67
T2 sequence (P20138 18-364 limits assumed): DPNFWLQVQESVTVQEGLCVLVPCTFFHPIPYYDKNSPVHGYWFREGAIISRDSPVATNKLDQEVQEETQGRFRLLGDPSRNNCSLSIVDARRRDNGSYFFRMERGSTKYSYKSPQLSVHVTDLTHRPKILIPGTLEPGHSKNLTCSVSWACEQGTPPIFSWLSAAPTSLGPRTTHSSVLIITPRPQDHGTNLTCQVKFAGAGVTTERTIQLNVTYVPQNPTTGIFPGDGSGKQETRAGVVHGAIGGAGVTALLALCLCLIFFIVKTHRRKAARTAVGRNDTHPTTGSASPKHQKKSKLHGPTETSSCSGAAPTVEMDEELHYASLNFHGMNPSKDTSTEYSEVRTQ
Description: flow cytometry, IgG at 0.25 ug/ml on HEK293-T cells expressing CD33 against vector alone. Background: In flow cytometry, cells or beads pass a laser one at a time.

The target in test [26] is T3, CD33 variant W22R on base-edited human CD34+ HSPCs (human, UniProt P20138 18-364).
T3 construct: also called sgRNA-E edited CD33
T3 sequence (P20138 18-364 W22R limits assumed): as the sequence (P20138 18-364 limits assumed) above, with W5R counted along it
Kind of test: flow cytometry sorting and NGS of sgRNA-E base-edited human CD34+ HSPCs.
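Wherever % WT binding is given: analyte association recorded over 300 s, followed by a 900 s dissociation phase.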

Chain of CD33 variant N20H (recombinant, biotinylated) (P20138 other isoform, or with tags, fused parts or gaps N20H N20H): as the sequence (P20138 other isoform, or with tags, fused parts or gaps W22D W22D) above, with N9H, D11W counted along it
Chain of CD33 variant F21V (recombinant, biotinylated) (P20138 other isoform, or with tags, fused parts or gaps F21V F21V): as the sequence (P20138 other isoform, or with tags, fused parts or gaps W22D W22D) above, with F10V, D11W counted along it
Chain of CD33 variant N20V (recombinant, biotinylated) (P20138 other isoform, or with tags, fused parts or gaps N20V N20V): as the sequence (P20138 other isoform, or with tags, fused parts or gaps W22D W22D) above, with N9V, D11W counted along it
Chain of CD33 variant F21M (recombinant, biotinylated) (P20138 other isoform, or with tags, fused parts or gaps F21M F21M): as the sequence (P20138 other isoform, or with tags, fused parts or gaps W22D W22D) above, with F10M, D11W counted along it
Chain of CD33 variant Y50K (recombinant, biotinylated) (P20138 other isoform, or with tags, fused parts or gaps Y50K Y50K): as the sequence (P20138 other isoform, or with tags, fused parts or gaps W22D W22D) above, with D11W, Y39K counted along it

B1: Refmab #4 (antibody, human IgG1, V domains shown)
VH: QVQLVQSGAEVKKPGESVKVSCKASGYTFTNYGMNWVKQAPGQGLEWMGWINTYTGEPTYADKFQGRVTMTTDTSTSTAYMEIRNLGGDDTAVYYCARWSWSDGYYVYFDYWGQGTSVTVSS
VL: DIVMTQSPDSLTVSLGERTTINCKSSQSVLDSSTNKNSLAWYQQKPGQPPKLLLSWASTRESGIPDRFSGSGSGTDFTLTIDSPQPEDSATYYCQQSAHFPITFGQGTRLEIK
As to B1, the “% WT binding” value in test [1] was found to be 0 % WT binding; in test [2], 129 % WT binding; in test [3], 111 % WT binding; in test [4] it was 88.3 % WT binding; in [5] it was 87.2 % WT binding; in test [6], 99.5 % WT binding. Moreover, the “% WT binding” value in [7] was 99.3 % WT binding; in [8], 108 % WT binding; in test [9], 73.9 % WT binding; in test [10] it was 91 % WT binding; in test [11], 106 % WT binding; in test [12], 0 % WT binding. Moreover, the “% WT binding” value stood at 103 % WT binding in test [13]; 122 % WT binding in [14]; 122 % WT binding in test [15]; 0 % WT binding in test [16]; 89 % WT binding in test [17]; 100 % WT binding in test [18]. In addition, the “% WT binding” value in test [19] amounted to 79.4 % WT binding; in test [20], 100 % WT binding; in test [21], 0 % WT binding; in test [22], 136 % WT binding; in test [23], 96 % WT binding; in test [24], 87.7 % WT binding.

B2: Refmab #3 (antibody, V domains shown)
VH: QVQLVQSGAEVKKPGSSVKVSCKASGYTFTDYNMHWVRQAPGQGLEWIGYIYPYNGGTGYNQKFKSKATITADESTNTAYMELSSLRSEDTAVYYCARGRPAMDYWGQGTLVTVSS
VL: DIQMTQSPSSLSASVGDRVTITCRASESVDNYGISFMNWFQQKPGKAPKLLIYAASNQGSGVPSRFSGSGSGTDFTLTISSLQPDDFATYYCQQSKEVPWTFGQGTKVEIK
notes: Full-length MAb format, human IgG1 Fc silent (PG-LALA)
Regarding B2, the “Signal:Background” value in test [25] is 35 signal:background ratio. Also, the binding result in test [26] is on record as “no binding”.
